These results are taken from patent US11110182B2, “Multifunctional RNA nanoparticles and methods for treating cancer and therapeutic resistant cancer” (University of Cincinnati, priority 2016, dated 2021).

This data set deals with BT474 orthotopic xenograft tumors. The experiment in a line: Anti-tumor therapy in BT474 orthotopic xenograft breast tumor mouse model. Type of data set: in vivo, athymic nude mice. Conditions: for tumor lung metastasis: H&E staining of whole lung. The method, then: FIG. 5A) BT474 orthotopic xenograft mouse models were treated with control pRNA-HER2apt-siScram or pRNA-HER2apt-siMED1 (4 mg/Kg) once a week, in combination with vehicle or tamoxifen (TAM, 0.5 mg/mice/day) 5 days per week. Tumor sizes were measured every three days. FIG. 5B) After three weeks, mice were i.p. injected with D-luciferin, and representative in vivo images of BT474 tumors were recorded using IVIS Lumina imaging system. FIG. 5C) Average weight of the tumors excised at the end of the treatment, and FIG. 5D) the representative photos of tumors. FIG. 5E and FIG. 5F) MED1 expression in the BT474 tumors was examined using IHC staining and FIG. 5G) immunoblotting. FIG. 5H) The expression of Ki-67 in tumor tissues was analyzed using IHC staining, and FIG. 5I) the percentage of Ki-67 positive cells was counted. Scale bar: 100 μm.
FIG. 6A) Whole lung tissues were fixed, embedded, and sectioned for H&E staining, and FIG. 6B) metastasis foci in the whole lung tissues were then counted. Arrow indicates the metastasis foci. Scale bar: 100 μm. FIG. 6C) After digesting tumor tissues with trypsin and 0.1% collagenase, tumor cells were stained for CD44 and CD24, and FIG. 6D) analyzed for CD44^+CD24^−/low stem cell population using flow cytometry. FIG. 6E) Total RNA in the tumor tissues was extracted using TRIZOL reagent, and the expression of TFF-1, FIG. 6F) c-Myc, FIG. 6G) cyclin D1, and FIG. 6H) MMP-9 were determined by real-time PCR.
Migration and metastasis assay. The 8-μm-pore-size polycarbonate membrane, which separates the two chambers of a 6.5-mm Transwell (Costar), was coated with or without 1:8 DMEM-diluted Matrigel (Corning). Transwell assay was performed as previously described.^57 Briefly, BT474 cells were treated with pRNAs alone or together with 4-hydroxy-tamoxifen (4-OHT) for 48 h and starved with serum-free DMEM containing 0.2% BSA overnight. On the next day, cells were collected and 2×10^5 cells were seeded to the upper chamber of Transwell. The lower chamber was filled with 600 μL DMEM medium containing 10% FBS. After incubation at 37° C. for 24 h, cells on the membranes were fixed and stained with 0.1% crystal violet in 20% ethanol solution. Cells at top side of membranes were removed completely, and cells at the bottom side were examined with an Olympus SZX12 microscope and counted. • Mammosphere culture and breast cancer stem cell analyses. BT474 cells were treated with pRNAs for 48 h. Then, cells were suspended in DMEM/F12 medium supplemented with 1×B27 (Thermo Fisher), 20 ng/mL bFGF and 20 ng/mL EGF (R&D), and added into 24-well ultralow attachment plates. After treatment with or without 1 μM 4-OHT for 7 days, mammosphere formation was recorded using an Axiovert S100 TV inverted microscope (Zeiss). Xenograft tumor tissues were cut into small pieces and digested with trypsin and collagenase at 37° C. for 1 h, and tumor cells were collected and rinsed with pre-cold PBS. All cells were stained with FITC-conjugated anti-CD44 antibody and PE-conjugated anti-CD24 antibody (BD Pharmingen) in the dark on ice for 30 min. After resuspension with 0.5 mL PBS buffer, CD44^+/CD24^−/low cell population was analyzed by flow cytometry. • Orthotopic xenograft breast tumor mouse model, in vivo imaging and anti-tumor therapy. Six-week-old female athymic nude mice were purchased from Charles River Laboratories, and all animal procedures were performed under IACUC-approved protocols at the University of Cincinnati. Athymic nude mice were orthotopically injected with 1×10^7 BT474-luc cells mixed with matrigel into the fat pads of the forth pair of mammary glands. When the tumor sizes reached 100-150 mm^3, the mice were randomly divided into four groups (4/group) and intravenously (i.v.) injected with pRNAs (4 mg/Kg) once a week for three weeks. For tamoxifen treatments, 0.5 mg tamoxifen (Sigma) dissolved in sesame oil was intraperitoneally (i.p.) injected into mice 5 days a week for three weeks. […]

B1: pRNA-HER2apt-siMED1: 3-WJ pRNA nanoparticle bearing a HER2-targeting RNA aptamer and two different MED1 siRNAs; strands p1 SEQ ID NO: 3, p2 SEQ ID NO: 4 (nucleic acid)
chain 1: GGACAGUGAAAGUGAGUCAAAGGAUCAAUCAUGGCCAAAGAUGUUACUUUGAGAGCCUU
chain 2: GGCUCUCAAAGUAACAUCUAAGGCCAUGUGUAUGUGGGGGGAGGACGAUGCGGUCUGCUGUGCUUGAUAUGCCCCAGACGACUCGCCCCCCACAUACUUUGUUGAUCCAAUGACUCACUUUCACUGUCCUU
modifications: 2'-F modification; third strand may lack entry; pRNA-HER2apt-siMED1, p1; pRNA-HER2apt-siMED1, p2
For B1, the “Ki-67 expression in tumor sections” value (IHC staining) is on record as “dramatic reduction”. Further, for the setting “IHC staining and western blot of BT474 tumors”, the “expression of MED1 in tumors” value is given as “significantly depleted”. Besides, for the setting “combined with tamoxifen, flow cytometry”, the “CD44^+CD24^−/low cancer stem cells in breast tumors” value is “almost complete depletion”. The tumor lung metastasis result is listed as “totally eradicated” (in combination with tamoxifen) and “totally eradicated” (single agent). Further, the tumor growth entry (pRNA 4 mg/Kg i.v. once a week in combination with tamoxifen 0.5 mg i.p. 5 days a week, three weeks) was “almost completely suppressed tumor growth” and the tumor growth result (single agent, pRNA 4 mg/Kg i.v. once a week or tamoxifen 0.5 mg i.p. 5 days a week, three weeks) is recorded as “significantly inhibited tumor growth”. Further, the tumor burden entry (pRNA alone, 4 mg/Kg i.v. once a week, three weeks) is listed as “reduced tumor burden”. Besides, the “CD44^+CD24^−/low cancer stem cells in the breast tumors” value (pRNA alone, flow cytometry) was “significantly reduced”.
